From patent publication US20070172470A1, “Phosphatase regulation of nucleic acid transcription” (The Regents of the University of California, priority 2003, published 2007)

Legend:
[1] = tested on: glucocorticoid receptor activity on GRE-TK-Luc construct; experiment: Luciferase reporter assay, dexamethasone-stimulated glucocorticoid receptor; assay type: cell-based, human; conditions: 100 nM dexamethasone
Description: (§1) Gal4-DNA binding domain-SCP1 fusion protein expression plasmids-were cotransfected in HEK293 cells with a Gal 4-TKLuc reporter plasmid and luciferase gene expression quantitated. In all panels, results of triplicate transfections are shown +/− SD. Data is expressed as fold-activation experimental/control). […] The indicated amounts of SCP1 or mutant SCP1 expression plasmids were cotransfected in HEK293 cells along with Gal 4-VP16 expression and Gal 4-TK-Luc reporter plasmids and luciferase activity was quantitated. […] The indicated receptor expression plasmids were cotransfected with their cognate promoter-reporter plasmids with or without SCP1 or mutant SCP1 expression plasmids. Cells were treated or untreated with receptor-specific ligands as described infra. […] The indicated concentrations of SCP1 and mutant SCP1 expression plasmids were cotransfected with LMX1 and E47 expression plasmids and the rat insulin 1 promoter-luciferase reporter gene. Luciferase activity was measured as described.
(§2) Tissue Culture and Transfections: Human 293, COS7 and CV1 cells were grown at 37° C. in DMEM supplemented with 10% normal calf serum (BRL). Sub-confluent cells were transfected in 6 well tissue culture dishes using Effectene (Qiagen) according to the manufacturer's instructions. Reporter and activator plasmids (100 ng each) and Flag SCP1 (80 ng) or its mutant were used per well. […]

[2] = tested on: PPARγ receptor activity on PPARγ promoter response element; experiment: Luciferase reporter assay, ligand-activated PPARγ receptor; assay type: cell-based, human
Description: as §1, §2

RNAP IIO = target: T1, RNAP IIO (Bos taurus, UniProt G3MZY8); experiment: CTD phosphatase assay with RNAP IIO as substrate; assay type: biochemical, calf
T1 construct: Calf thymus RNAP IIA was purified; from tissue; host or cells: calf thymus
Description: FIGS. 2C and 2D show a CTD phosphatase assay of FCP1 and SCP1 on GST-CTDo and RNAP IIO prepared by MAPK2/ERK2. Increasing amounts of FCP1 or GST-SCP1 214 were assayed in the presence of 75 fmol GST-CTDo (lanes 1-6), 75 fmol RNAP IIO (lanes 7-12), or 75 fmol GST-CTDo and 75. fmol RNAP IIO (lanes 13-18). Both GST-CTDo and RNAP IIO substrates were prepared by the in vitro phosphorylation of CKII-labeled GST-CTDa or RNAP IIA by MAPK2/ERK2. All reactions were carried out in the presence of 7 pmol RAP74. CTD dephosphorylation of both GST-CTDo and RNAP IIO is shown by the increase in mobility of GST-CTDo to GST-CTDa and subunit IIo to IIa, respectively. The difference in the intensity of radiolabeled GST-CTDoand that of radiolabeled subunit IIo is not a reflection of a difference in the amount of substrates present, but of the higher efficiency with which CKII incorporates radiolabeled phosphates onto the most C-terminal serine of GST-CTDa compared to subunit. IIa.
Increasing amounts of GST-SCP1 214 were assayed in the presence of 3.7 fmol RNAP IIO prepared by CTDK1/CTDK2, TFIIH, P-TEFb, MAPK2/ERK2 and Cdc2 kinase. All reactions were carried out in-the presence of 7 pmol. RAP74. CTD dephosphorylation of RNAP IIO isozymes. by qSTSCP1 214 is shown by an increase in mobility of subunit IIo to that of IIa. The results are summarized in the graph showing the percent of RNAP IIO remaining as a function of increasing SCP1 concentrations.
Preparation and Purification of ^32P-RNAP IIO Isozymess and ^32P-GST-CTDo: Calf thymus RNAP IIA was purified by the method of Hodo and Blatti (30) with modifications as described by Kang and Dahmus (31). Specific isozymes of ^32p-labeled RNAP IIO were prepared by phosphorylation at the most C-terminal serine (CKII site) in the largest subunit of purified RNAP IIA with recombinant CKII and […], followed by CTD phosphorylation in the presence of 2 mM ATP with either purified CTDK1/CTDK2, TFIIH, P-TEFb, recombinant MAPK2/ERK2 or recombinant Cdc2 kinase. The RNAP IIO isozymes were individually purified over a DE53 column with a step elution of 500 mM KCl (28). Because only the most C-terminal serine is labeled with ^32p and lies outside. the consensus repeat, dephosphorylation by CTD phosphatase results in an electrophoretic mobility shift in SDS-PAGE of subunit IIo to the position of subunit IIa without the loss of label. Similarly, ^32P-labeled GST-CTDo was prepared from GST-CTDa by CKII followed by MAPK2/ERK2. GST-CTDo was purified over a glutathione-agarose column with a step elution of 15 mM glutathione.
CTD phosphatase assays utilizing RNAP IIO and GST-CTDo as substrate were performed as described previously (32) with minor modifications. Reactions were performed in 20 μl of CTD phosphatase buffer (50 mM Tris-HCl, pH 7.9, 10 mM MgCl2, 20% glycerol, 0.025% Tween 80, 0.1 mM EDTA, 5 mM DTT) in the presence of 20 mM KCl. Each reaction contained specified amounts of GST-CTDo and/or RNAP IIO and was carried out in the presence of 7 pmol RAP74. Reactions were initiated by the addition of FCP1 or SCP1 and incubated at 30° C. for 30 minutes. Assays were terminated by the addition of 5× Laemmli buffer, and RNAP II subunits and GST-CTD were resolved on a 5% SDS-PAGE gel. The gel images were developed by autoradiography and scanned by Molecular Dynamics Image Scanner Storm 860 in the phosphor screen mode. Data were quantitatively analyzed by ImageQuant software.

[3] = 3.7 fmol RNAP IIO, 7 pmol RAP74

B1: SCP1: small CTD phosphatase-1, full-length 261 aa human protein, SEQ ID NO:2 (protein, listed as Homo sapiens)
chain: MDSSAVITQISKEEARGPLRGKGDQKSAASQKPRSRGILHSLFCCVCRDDGEALPAHSGAPLLVEENGAIPKTPVQYLLPEAKAQDSDKICVVIDLDETLVHSSFKPVNNADFIIPVEIDGVVHQVYVLKRPHVDEFLQRMGELFECVLFTASLAKYADPVADLLDKWGAFRARLFRESCVFHRGNYVKDLSRLGRDLRRVLILDNSPASYVFHPDNAVPVASWFDNMSDTELHDLLPFFEQLSRVDDVYSVLRQPRPGS
dexamethasone-stimulated glucocorticoid receptor activity [1]: inhibited | ligand-activated PPARγ receptor activity [2]: inhibited | dephosphorylation of RNAP IIO generated by Abl tyrosine kinase (RNAP IIO): unable to dephosphorylate | dephosphorylation of RNAP IIO generated by TFIIH (RNAP IIO; [3]): most efficiently dephosphorylates | dephosphorylation of RNAP IIO prepared with Cdc2 kinase (RNAP IIO; [3]): unable to dephosphorylate | dephosphorylation of RNAP IIO isozymes prepared with P-TEFb, MAPK2/ERK2 and CTDK1/CTDK2 (RNAP IIO; relative to RNAP IIO prepared with TFIIH): reduced rate
